Results reported in US20130171059A1 (AbbVie / Abbott, published 2013).

T1: Recombinant Human SOST (human, UniProt Q9BQB4 24-213)
T1 sequence (looked up): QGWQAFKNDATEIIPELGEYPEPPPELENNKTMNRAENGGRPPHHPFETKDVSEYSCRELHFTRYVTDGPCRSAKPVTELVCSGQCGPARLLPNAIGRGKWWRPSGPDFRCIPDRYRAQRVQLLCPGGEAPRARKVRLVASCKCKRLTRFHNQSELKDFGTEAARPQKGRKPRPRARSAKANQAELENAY

B1: DVD1959 (bispecific antibody, not shown: a dimerising Fc or GST)
heavy: DVQMIQSPSSLSASLGDIVTMTCQASQGTSINLNWFQQKPGKAPKLLIYGSSNLEDGVPSRFSGSRYGTDFTLTISSLEDEDLATYFCLQHSYLPYTFGGGTKLEIKRTVAAPQVQLKESGPGLVAPSQSLSITCTVSGFSLTDYGVNWVRQPPGKGLEWLGMIWGDGSTDYDSTLKSRLSISKDNSKSQIFLKMNSLQTDDTARYYCAREWHHGPVAYWGQGTLVTVSA
light: EVQLQQSGPELVTPGASVKISCKASGYTFTDHYMSWVKQSHGKSLEWIGDINPYSGETTYNQKFKGTATLTVDKSSSIAYMEIRGLTSEDSAVYYCARDDYDASPFAYWGQGTLVTVSAASTKGPDIVMTQSHKFMSTTVGDRVSITCKASQAVSSAVAWYQQKPGQSPKLLIYWASTRHTGVPDRFTGSGSVTDFTLTIHNLQAEDLALYYCQQHYSTPFTFGSGTKLEIKR
B2: DVD1982 (bispecific antibody, not shown: a dimerising Fc or GST)
heavy: DIQMTQSPSSLSASVGDRVTITCRASQGIRIDLGWYQQKPGKAPKRLIYAASTLQSGVPSRFSGSGSGTEFIFTISSLQPEDFASYYCLQHKSYPLTFGGGTKVEIKRTVAAPEVQLQQSGPELVTPGASVKISCKASGYTFTDHYMSWVKQSHGKSLEWIGDINPYSGETTYNQKFKGTATLTVDKSSSIAYMEIRGLTSEDSAVYYCARDDYDASPFAYWGQGTLVTVSA
light: QVQLVESGGGVVQPGRSLRLSCAASGFTFSSYDMHWVRQAPGKGLEWVAVIWSDGSIKYYADSVKGRFTISRDNSKNTLYLQMNSLRAEDTAVYYCAREVESAMGGFYYNGMDVWGQGTTVTVSSASTKGPDVQMIQSPSSLSASLGDIVTMTCQASQGTSINLNWFQQKPGKAPKLLIYGSSNLEDGVPSRFSGSRYGTDFTLTISSLEDEDLATYFCLQHSYLPYTFGGGTKLEIKR
B3: DVD1983 (bispecific antibody, not shown: a dimerising Fc or GST)
heavy: DVQMIQSPSSLSASLGDIVTMTCQASQGTSINLNWFQQKPGKAPKLLIYGSSNLEDGVPSRFSGSRYGTDFTLTISSLEDEDLATYFCLQHSYLPYTFGGGTKLEIKRTVAAPQVQLVESGGGVVQPGRSLRLSCAASGFTFSSYDMHWVRQAPGKGLEWVAVIWSDGSIKYYADSVKGRFTISRDNSKNTLYLQMNSLRAEDTAVYYCAREVESAMGGFYYNGMDVWGQGTTVTVSS
light: EVQLQQSGPELVTPGASVKISCKASGYTFTDHYMSWVKQSHGKSLEWIGDINPYSGETTYNQKFKGTATLTVDKSSSIAYMEIRGLTSEDSAVYYCARDDYDASPFAYWGQGTLVTVSAASTKGPDIQMTQSPSSLSASVGDRVTITCRASQGIRIDLGWYQQKPGKAPKRLIYAASTLQSGVPSRFSGSGSGTEFIFTISSLQPEDFASYYCLQHKSYPLTFGGGTKVEIKR
B4: AB213 (antibody, V domains shown)
VH: QVQLKESGPGLVAPSQSLSITCTVSGFSLTDYGVNWVRQPPGKGLEWLGMIWGDGSTDYDSTLKSRLSISKDNSKSQIFLKMNSLQTDDTARYYCAREWHHGPVAYWGQGTLVTVSA
VL: DIVMTQSHKFMSTTVGDRVSITCKASQAVSSAVAWYQQKPGQSPKLLIYWASTRHTGVPDRFTGSGSVTDFTLTIHNLQAEDLALYYCQQHYSTPFTFGSGTKLEIKR
notes: Parent antibody
B5: DVD1985 (bispecific antibody)
DVD-H: DIQMTQSPSSLSASVGDRVTITCRASQSISNNLNWYQQKPGKAPKLLIYYTSRFHSGVPSRFSGSGSGTDFTFTISSLQPEDIATYYCQQEHTLPYTFGQGTKLEIKRTVAAPQVQLVESGGGVVQPGRSLRLSCAASGFTFSSYDMHWVRQAPGKGLEWVAVIWSDGSIKYYADSVKGRFTISRDNSKNTLYLQMNSLRAEDTAVYYCAREVESAMGGFYYNGMDVWGQGTTVTVSS
DVD-L: QVQLQESGPGLVKPSETLSLTCTVSGFSLIGYDLNWIRQPPGKGLEWIGIIWGDGTTDYNSAVKSRVTISKDTSKNQFSLKLSSVTAADTAVYYCARGGYWYATSYYFDYWGQGTLVTVSSASTKGPDIQMTQSPSSLSASVGDRVTITCRASQGIRIDLGWYQQKPGKAPKRLIYAASTLQSGVPSRFSGSGSGTEFIFTISSLQPEDFASYYCLQHKSYPLTFGGGTKVEIK
notes: VH/VL crossover DVD-Ig; also called DVD1985H + DVD1985L; copies: 2 + 2
B6: DVD1990 (bispecific antibody)
DVD-H: EIVMTQSPATLSVSPGERATLSCRASQSVSSNLAWYQQKPGQAPRLLIHGASIRATGLPARFSGSGSGTEFTLTISSLQSEDFAVYYCQQYNYWWTFGQGTKVEIKRTVAAPEVQLQQSGPELVTPGASVKISCKASGYTFTDHYMSWVKQSHGKSLEWIGDINPYSGETTYNQKFKGTATLTVDKSSSIAYMEIRGLTSEDSAVYYCARDDYDASPFAYWGQGTLVTVSA
DVD-L: EVQLVESGGGLIQPGGSLRLSCAASGFTVSRNYMSWVRQAPGKGLEWVSVIYSGDRTYYADSVKGRFTISRDNSKNTLYLQMNSLRAEDTAVYYCARGEGGFDYWGQGTLVTVSSASTKGPDVQMIQSPSSLSASLGDIVTMTCQASQGTSINLNWFQQKPGKAPKLLIYGSSNLEDGVPSRFSGSRYGTDFTLTISSLEDEDLATYFCLQHSYLPYTFGGGTKLEIK
notes: VH/VL crossover DVD-Ig; also called DVD1990H + DVD1990L; copies: 2 + 2
B7: DVD1993 (bispecific antibody)
DVD-H: DIQMTQSPSSLSASVGDRVTITCRASQSISNNLNWYQQKPGKAPKLLIYYTSRFHSGVPSRFSGSGSGTDFTFTISSLQPEDIATYYCQQEHTLPYTFGQGTKLEIKRTVAAPEVQLVESGGGLIQPGGSLRLSCAASGFTVSRNYMSWVRQAPGKGLEWVSVIYSGDRTYYADSVKGRFTISRDNSKNTLYLQMNSLRAEDTAVYYCARGEGGFDYWGQGTLVTVSS
DVD-L: QVQLQESGPGLVKPSETLSLTCTVSGFSLIGYDLNWIRQPPGKGLEWIGIIWGDGTTDYNSAVKSRVTISKDTSKNQFSLKLSSVTAADTAVYYCARGGYWYATSYYFDYWGQGTLVTVSSASTKGPEIVMTQSPATLSVSPGERATLSCRASQSVSSNLAWYQQKPGQAPRLLIHGASIRATGLPARFSGSGSGTEFTLTISSLQSEDFAVYYCQQYNYWWTFGQGTKVEIK
notes: VH/VL crossover DVD-Ig; also called DVD1993H + DVD1993L; copies: 2 + 2
B8: AB217 (antibody, V domains shown)
VH: QVQLVESGGGVVQPGRSLRLSCAASGFTFSSYDMHWVRQAPGKGLEWVAVIWSDGSIKYYADSVKGRFTISRDNSKNTLYLQMNSLRAEDTAVYYCAREVESAMGGFYYNGMDVWGQGTTVTVSS
VL: DIQMTQSPSSLSASVGDRVTITCRASQGIRIDLGWYQQKPGKAPKRLIYAASTLQSGVPSRFSGSGSGTEFIFTISSLQPEDFASYYCLQHKSYPLTFGGGTKVEIKR
notes: Parent antibody
B9: AB022 (antibody, V domains shown)
VH: EVQLQQSGPELVTPGASVKISCKASGYTFTDHYMSWVKQSHGKSLEWIGDINPYSGETTYNQKFKGTATLTVDKSSSIAYMEIRGLTSEDSAVYYCARDDYDASPFAYWGQGTLVTVSA
VL: DVQMIQSPSSLSASLGDIVTMTCQASQGTSINLNWFQQKPGKAPKLLIYGSSNLEDGVPSRFSGSRYGTDFTLTISSLEDEDLATYFCLQHSYLPYTFGGGTKLEIKR
notes: Parent antibody; also called SOST parent antibody
B10: AB218 (antibody, V domains shown)
VH: EVQLVESGGGLIQPGGSLRLSCAASGFTVSRNYMSWVRQAPGKGLEWVSVIYSGDRTYYADSVKGRFTISRDNSKNTLYLQMNSLRAEDTAVYYCARGEGGFDYWGQGTLVTVSS
VL: EIVMTQSPATLSVSPGERATLSCRASQSVSSNLAWYQQKPGQAPRLLIHGASIRATGLPARFSGSGSGTEFTLTISSLQSEDFAVYYCQQYNYWWTFGQGTKVEIKR
notes: Parent antibody

Columns and labels:
[1] = biological target: T2, Recombinant Human TNF-α/TNFSF1A (human, UniProt P01375 77-233); experiment: cell-based or functional assay
T2 sequence (P01375 77-233 limits assumed): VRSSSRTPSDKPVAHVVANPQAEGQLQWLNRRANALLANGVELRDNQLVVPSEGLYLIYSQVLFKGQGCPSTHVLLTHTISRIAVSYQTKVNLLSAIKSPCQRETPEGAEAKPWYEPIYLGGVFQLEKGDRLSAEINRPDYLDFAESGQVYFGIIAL

[2] = biological target: T1, Recombinant Human SOST; experiment: cell-based or functional assay
[3] = biological target: T2, Recombinant Human TNF-α/TNFSF1A; experiment: SPR (Biacore)
Procedure: (§1) The BIACORE assay (Biacore, Inc, Piscataway, N.J.) determined the affinity of antibodies or DVD-Ig proteins with kinetic measurements of on-rate and off-rate constants. Binding of antibodies or DVD-Ig proteins to a target antigen (for example, a purified recombinant target antigen) was determined by surface plasmon resonance-based measurements with a Biacore® 1000 or 3000 instrument (Biacore® AB, Uppsala, Sweden) using running HBS-EP (10 mM HEPES [pH 7.4], 150 mM NaCl, 3 mM EDTA, and 0.005% surfactant P20) at 25° C. All chemicals were obtained from Biacore® AB (Uppsala, Sweden) or otherwise from a different source as described in the text. For example, approximately 5000 RU of goat anti-mouse IgG, (Fcγ), fragment specific polyclonal antibody (Pierce Biotechnology Inc, Rockford, Ill.) diluted in 10 mM sodium acetate (pH 4.5) was directly immobilized across a CM5 research grade biosensor chip using a standard amine coupling kit according to manufacturer's instructions and procedures at 25 μg/ml. Unreacted moieties on the biosensor surface were blocked with ethanolamine. Modified carboxymethyl dextran surface in flowcell 2 and 4 was used as a reaction surface. Unmodified carboxymethyl dextran without goat anti-mouse IgG in flow cell 1 and 3 was used as the reference surface. For kinetic analysis, rate equations derived from the 1:1 Langmuir binding model were fitted simultaneously to association and dissociation phases of all eight injections (using global fit analysis) with the use of Biaevaluation 4.0.1 software. Purified antibodies or DVD-Ig proteins were diluted in HEPES-buffered saline for capture across goat anti-mouse IgG specific reaction surfaces. Antibodies or DVD-Ig proteins to be captured as a ligand (25 μg/ml) were injected over reaction matrices at a flow rate of 5 μl/minute. The association and dissociation rate constants, kₒₙ (M⁻¹s⁻¹) and koff (s⁻¹) were determined under a continuous flow rate of 25 μl/minute. Rate constants were derived by making kinetic binding measurements at different antigen concentrations ranging from 10-200 nM. The equilibrium dissociation constant (M) of the reaction between antibodies or DVD-Ig proteins and the target antigen was then calculated from the kinetic rate constants by the following formula: KD=koff/kₒₙ. Binding was recorded as a function of time and kinetic rate constants were calculated.

[4] = biological target: T3, Recombinant Human β-NGF (human, UniProt P01138 122-239, limits assumed); experiment: SPR (Biacore)
T3 construct: Bought reagent for Biacore; also called huNGF; NGF (Rinat)
T3 sequence (P01138 122-239 limits assumed): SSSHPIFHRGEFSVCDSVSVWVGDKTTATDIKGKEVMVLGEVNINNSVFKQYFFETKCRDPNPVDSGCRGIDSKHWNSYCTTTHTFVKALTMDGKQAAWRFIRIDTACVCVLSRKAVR
Procedure: as §1

[5] = biological target: T1, Recombinant Human SOST; experiment: SPR (Biacore)
Procedure: as §1

| Binder | C-Terminal VD TNFα Neutralization Assay IC50 (L929 cells) [1] [nM] | Kd [3] [nM] | koff [3] [s⁻¹] | kon [3] [M⁻¹ s⁻¹] | TNFα Neutralization Assay IC50 (L929 cells) [1] [nM] | also measured |
| --- | --- | --- | --- | --- | --- | --- |
| B1 | 1.52 |  |  |  |  | N-Terminal VD SOST Neutralization Assay IC50 (Wnt-1/luciferase HEK clone #14) [2]: 54.2 nM |
| B2 |  |  |  |  |  | N-Terminal VD TNFa Neutralization Assay IC50 (L929 cells) [1]: 0.017 nM; C-Terminal VD SOST Neutralization Assay IC50 (Wnt-1/luciferase HEK clone #14) [2]: > 100 nM |
| B3 | 0.127 |  |  |  |  | N-Terminal VD SOST Neutralization Assay IC50 (Wnt-1/luciferase HEK clone #14) [2]: > 360 nM |
| B4 |  | 0.025 | 8.2e-05 | 3.2e+06 | 0.244 |  |
| B5 | 4.51 | 0.43 | 1.9e-05 | 45000 |  | Kd [4]: 0.012 nM; koff [4]: 3.7e-05 s⁻¹; kon [4]: 3.1e+06 M⁻¹ s⁻¹ |
| B6 |  | 0.016 | 4.5e-05 | 2.8e+06 |  | Kd [5]: 0.33 nM; koff [5]: 0.00058 s⁻¹; kon [5]: 1.8e+06 M⁻¹ s⁻¹; N-Terminal VD TNFa Neutralization Assay IC50 (L929 cells) [1]: 0.408 nM; C-Terminal VD SOST Neutralization Assay IC50 (Wnt-1/luciferase HEK clone #14) [2]: > 250 nM |
| B7 | 2.08 | 0.43 | 3.5e-05 | 81000 |  | Kd [4]: 0.0047 nM; koff [4]: 1.5e-05 s⁻¹; kon [4]: 3.3e+06 M⁻¹ s⁻¹ |
| B8 |  | 0.028 | 4.8e-05 | 1.7e+06 | 0.313 |  |
| B9 |  |  |  |  |  | Kd [5]: 0.018 nM; koff [5]: 0.00038 s⁻¹; kon [5]: 2.1e+07 M⁻¹ s⁻¹; SOST Neutralization Assay IC50 (Wnt-1/luciferase HEK clone #14) [2]: 34.8 nM |
| B10 |  | 0.041 | 7.3e-05 | 1.8e+06 | 0.179 |  |
